This note sets out measurements from US20240309112A1 (MITSUBISHI TANABE PHARMA, published 2024).

Test [1] deals with T1, biotin-labeled human PAD4 protein (human, UniProt Q9UM07 1-663, biotin on the Avi tag (biotin ligase BirA)).
T1 construct: also called Avi tag-human PAD4; biotin-labeled PAD4; not shown: Avi tag left on the N-terminal side after the GST tag was cleaved with PreScission Protease
Nature of the test: SPR, Biacore T200, biotin-labeled human PAD4 captured on chip, IgG as analyte.

Test [2] has as its target Human PAD4 (enzyme inhibition assays) (human, UniProt Q9UM07 1-663, limits assumed). Nature of the test: cell-based or functional assay.
Test [3] deals with T2, human PAD4 (Cayman Chemical company, Cat 10500) (human, UniProt Q9UM07 1-663).
T2 construct: Bought protein
Nature of the test: SPR, Biacore T200, antibody captured on Protein A chip, 50 nM human PAD4 as analyte; antigen binding amount divided by antibody binding amount. The protocol:
In order to investigate an antigen-binding ability after the storage, antigen-binding activity measurements were performed using a surface plasmon resonance apparatus Biacore T200 (GE Healthcare). Cryopreserved test antibodies and test antibodies stored at 4° C. or 40° C. for 4 weeks were prepared to 10 μg/mL using a running buffer solution HBS-EP+. Using a Series S Sensorchip Protein A (GE Healthcare), a test antibody solution was added to a flow cell 2 at a flow rate of 10 μL/min for 60 seconds and immobilized on a sensor chip. A flow cell 1 was used as a reference cell. A binding amount 55 seconds after the completion of the addition of the test antibody to the flow cell 2 was subtracted from a binding amount of the flow cell 1 to obtain an antibody binding amount. Next, human PAD4 (Cayman Chemical company, Cat 10500) was prepared to 50 nM using HBS-EP+ and used as an analyte solution. The analyte solution was added at a flow rate of 30 μL/min for 120 seconds to obtain a sensorgram of a bound phase. A binding amount 5 seconds before the completion of the addition of the analyte solution to the flow cell 2 was subtracted from a binding amount of the flow cell 1 to obtain an antigen binding amount. Subsequently, a running buffer solution was added for 180 seconds to obtain a sensorgram of a dissociated phase. The measurements were performed at 25° C. The antibody binding amount and the antigen binding amount were calculated using a data analysis program (GE Healthcare, Biacore T200 Evaluation Software v3.1), and the antigen binding amount under each condition was divided by the antibody binding amount to obtain a relative antigen binding amount. There was no change between the relative antigen-binding amount of a cryopreserved test antibody and the relative antigen-binding amount of a test antibody stored at 4° C. The relative antigen-binding amounts of various test antibodies stored at 40° C. for 4 weeks were compared to the relative antigen-binding amounts of the test antibodies stored at 4° C. for 4 weeks, and the antigen-binding activities were determined.
For orientation: Surface plasmon resonance follows binding to a sensor surface in real time, without labels.

Test [4] addresses T1, biotin-labeled human PAD4 protein. Nature of the test: SPR, Biacore T200, biotin-labeled human PAD4 captured on chip, antibody as analyte, single-cycle, 1:1 model. As for the experimental part:
A biotin-labeled human PAD4 protein was immobilized on a sensor chip using a Biotin Capture Kit (GE Healthcare). The PAD4 protein was prepared to 0.5 μg/mL using HBS-EP+ and used as a ligand solution. The ligand solution was added to a flow cell at a flow rate of 10 μL/min for 30 seconds, and then HBS-EP+ was added for 60 seconds. A flow cell to which no ligand solution was added was used as a reference cell. The test antibody was prepared from several hundred pM to several nM using HBS-EP+ and used as an analyte solution. Further, a running buffer solution was used as a blank solution. The blank solution or the analyte solution was added at a flow rate of 30 μL/min for 180 seconds using a single-cycle method, and a dissociation time was 1200 seconds. A sensorgram of the reference cell is subtracted from a sensorgram of the flow cell to which the ligand was added when the blank solution or the analyte solution was added, and further, a sensorgram to which the blank solution was added was subtracted from the sensorgram to which the analyte solution was added, and the result was used for analysis. Binding parameters were calculated using a 1:1 binding model using Biacore T200 Evaluation software (GE Healthcare). […] The dissociation constants of the antibodies 2-1-47, 3-1-39, 3-2-37, and 4-2-25 with improved complementarity determining regions with respect to human PAD4 protein were respectively 31, 48, 73, and 20 pM.

Test [5] shares this target. The description is as above. The protocol: Binding affinities of the test antibodies G8 and G8ss with respect to human PAD4 proteins were determined by measuring a dissociation constant (KD) in HBS-EP+ using a surface plasmon resonance apparatus Biacore T200 (GE Healthcare). A biotin-labeled human PAD4 protein was immobilized on a sensor chip using a Biotin Capture Kit (GE Healthcare). The PAD4 protein was prepared to 0.25 μg/mL using HBS-EP+ and used as a ligand solution. The ligand solution was added to a flow cell at a flow rate of […] for 30 seconds, and then HBS-EP+ was added for 60 seconds. A flow cell to which no ligand solution was added was used as a reference cell. The test antibody was prepared from several hundred pM to several nM using HBS-EP+ and used as an analyte solution. Further, a running buffer solution was used as a blank solution. The blank solution or the analyte solution was added at a flow rate of 30 μL/min for 180 seconds using a single-cycle method, and a dissociation time was 1200 seconds. A sensorgram of the reference cell is subtracted from a sensorgram of the flow cell to which the ligand was added when the blank solution or the analyte solution was added, and further, a sensorgram to which the blank solution was added was subtracted from the sensorgram to which the analyte solution was added, and the result was used for analysis. Binding parameters were calculated using a 1:1 binding model using Biacore T200 Evaluation software (GE Healthcare).
This is another data set of the same source.

Where a chain is given by its changes, count along the chain named.

T1 sequence (Q9UM07 whole entry): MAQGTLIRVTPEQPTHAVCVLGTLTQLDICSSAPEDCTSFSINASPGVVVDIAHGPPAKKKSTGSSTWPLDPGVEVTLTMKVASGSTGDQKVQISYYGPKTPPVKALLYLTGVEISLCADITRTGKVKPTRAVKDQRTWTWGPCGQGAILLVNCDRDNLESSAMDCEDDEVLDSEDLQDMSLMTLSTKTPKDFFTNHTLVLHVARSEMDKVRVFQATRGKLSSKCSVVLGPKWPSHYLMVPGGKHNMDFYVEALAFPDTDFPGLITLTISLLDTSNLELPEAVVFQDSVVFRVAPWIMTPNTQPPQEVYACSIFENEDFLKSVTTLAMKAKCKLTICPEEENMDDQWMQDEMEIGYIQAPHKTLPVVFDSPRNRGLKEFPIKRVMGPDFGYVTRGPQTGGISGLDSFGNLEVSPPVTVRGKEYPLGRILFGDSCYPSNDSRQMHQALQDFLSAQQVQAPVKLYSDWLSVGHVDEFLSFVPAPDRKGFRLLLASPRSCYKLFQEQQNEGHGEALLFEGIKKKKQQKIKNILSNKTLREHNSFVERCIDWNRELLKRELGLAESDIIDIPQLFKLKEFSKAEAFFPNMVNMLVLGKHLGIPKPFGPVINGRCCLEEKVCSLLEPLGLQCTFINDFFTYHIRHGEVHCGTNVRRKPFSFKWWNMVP
Sequence of Human PAD4 (enzyme inhibition assays) (Q9UM07 whole entry): as above
T2 sequence (Q9UM07 whole entry): as above

B1: Lib2(4R)-1-47 (antibody, V domains shown)
VH: EVQLLESGGGLVQPGGSLRLSCAASGFTFSTYAMGWVRQAPGKGLEFVAAIRNDGSWTGYGTPYKTRFTISRDNSKNTLYLQMNSLRAEDTAVYYCAKYTGSSGGSIGAWGQGTLVTVSS
VL: SYELTQPPSVSVSPGQTARITCSGGNRNYYYGWYQQKPGQAPVTVIYANDKRPSGIPERFSGSNSGSTTTLTISGVQAEDEADYYCGTATTGKYVFGGGTKLTVLG
notes: Tested as full-length antibody (human IgG1/human k) from Expi293; also called Lib(4R)-1-47
As a reminder, the Kd is the free concentration of one partner at which half of the binding sites on the other are occupied at equilibrium, for simple one-to-one binding. As usually defined, the koff is a measure of how fast the partners let go of each other. Lower therefore signals a long-lived complex. Broadly, the kon is a measure of how fast the partners come together. A low value points to slower complex formation. B1: in test [1], the Kd was 0.0175 nM, the koff amounted to 0.000164 s⁻¹ and the kon came to 9.39e+06 M⁻¹ s⁻¹. In test [2], the “IC50, human PAD4 enzyme inhibitory activity (citrullination of BAEE, colorimetric)” value is 9.6 nM.

B2: anti-PAD4 antibody 2-1-47 (antibody, human IgG1, lambda, V domains shown)
VH: B1 VH with N84S
VL: B1 VL
notes: Lib2(4R)-1-47 with the 84th asparagine of the heavy chain substituted with serine; full-length IgG from ExpiCHO
In the case of B2, in test [3], the “antigen-binding activity after storage at 40° C. for 4 weeks, relative to storage at 4° C.” value is 95.6%. The “IC50, human PAD4 enzyme inhibitory activity (citrullination of BAEE, colorimetric)” value in test [2] came to 12.2 nM. In test [4], this molecule displayed a Kd of 0.031 nM, a koff of 0.000507 s⁻¹ and an association rate constant (kon) of 1.61e+07 M⁻¹ s⁻¹.

B3: Lib1(6R)-1-39 (antibody, human IgG1, lambda, V domains shown)
VH: B1 VH with Y60T, G61S, T62V, P63N, Y64A
VL: B1 VL
notes: Tested as full-length antibody (human IgG1/human k) from Expi293
In test [1], B3 registered a Kd of 0.0183 nM, a koff of 0.000108 s⁻¹ and a kon of 5.9e+06 M⁻¹ s⁻¹. In test [2], the “IC50, human PAD4 enzyme inhibitory activity (citrullination of BAEE, colorimetric)” value stood at 8.7 nM.

B4: Lib1(6R)-2-37 (antibody, human IgG1, lambda, V domains shown)
VH: B1 VH with Y60I, T62Y, P63N, Y64Q, T66S, A97G
VL: B1 VL with T90L
notes: as for B3
Consider B4, for which, in test [1], the affinity, expressed as Kd, was 0.0358 nM; the koff worked out at 0.000361 s⁻¹; the kon was 1.01e+07 M⁻¹ s⁻¹. The “IC50, human PAD4 enzyme inhibitory activity (citrullination of BAEE, colorimetric)” value in test [2] worked out at 13.4 nM.

B5: Lib2(5R)-2-25 (antibody, human IgG1, lambda, V domains shown)
VH: B1 VH with G61P, T62P, Y64L, T66G
VL: B1 VL with T90Y
notes: as for B3
Turning to B5, in test [1], binding was put at a Kd of 0.0158 nM, the koff was determined as 0.000202 s⁻¹ and the kon is 1.28e+07 M⁻¹ s⁻¹. Further, in test [2], the “IC50, human PAD4 enzyme inhibitory activity (citrullination of BAEE, colorimetric)” value came to 8.3 nM.

B6: anti-PAD4 antibody 4-2-25 (antibody, human IgG1, lambda, V domains shown)
VH: B1 VH with G61P, T62P, Y64L, T66G, N84S
VL: B1 VL with T90Y
notes: Lib2(5R)-2-25 with the 84th asparagine of the heavy chain substituted with serine; full-length IgG from ExpiCHO
For B6, in test [3], the “antigen-binding activity after storage at 40° C. for 4 weeks, relative to storage at 4° C.” value turned out to be 97%. The “IC50, human PAD4 enzyme inhibitory activity (citrullination of BAEE, colorimetric)” value in test [2] amounted to 7.6 nM. In test [4], this molecule registered a Kd of 0.02 nM, a koff of 0.000299 s⁻¹ and a kon of 1.47e+07 M⁻¹ s⁻¹.

B7: humanized anti-PAD4 antibody G8ss (antibody, human IgG1, lambda, V domains shown)
VH: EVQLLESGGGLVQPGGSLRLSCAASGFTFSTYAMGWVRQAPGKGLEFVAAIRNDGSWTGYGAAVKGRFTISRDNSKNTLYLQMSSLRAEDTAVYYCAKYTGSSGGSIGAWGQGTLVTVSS
VL: B1 VL with T90D
notes: G8 with the 84th asparagine of the heavy chain substituted with serine; full-length IgG; also called test antibody G8ss
Consider B7, for which the “antigen-binding activity after storage at 40° C. for 4 weeks, relative to storage at 4° C.” value in test [3] was 82.2%. Moreover, in test [5], the Kd stood at 0.276 nM, the koff amounted to 0.00176 s⁻¹ and the on-rate (kon) came to 6.37e+06 M⁻¹ s⁻¹. Further, in test [2], the “IC50, human PAD4 enzyme inhibitory activity (citrullination of BAEE, colorimetric)” value amounted to 20.3 nM. In test [4], this molecule came in with a Kd of 0.199 nM, an off-rate constant (koff) of 0.00122 s⁻¹ and a kon of 6.15e+06 M⁻¹ s⁻¹.

B8: humanized anti-PAD4 antibody G8 (antibody, human IgG1, lambda, V domains shown)
VH: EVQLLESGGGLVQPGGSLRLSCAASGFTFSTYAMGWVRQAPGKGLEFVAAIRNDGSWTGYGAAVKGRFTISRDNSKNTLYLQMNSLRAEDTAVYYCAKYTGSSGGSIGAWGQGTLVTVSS
VL: B1 VL with T90D
notes: Full-length IgG, described in WO 2016/143753; also called test antibody G8; parent clone G8
For the molecule B8, in test [5], the dissociation constant (Kd) came to 0.214 nM, the koff is 0.00165 s⁻¹ and the kon worked out at 7.7e+06 M⁻¹ s⁻¹. Moreover, in test [1], the Kd stood at 0.208 nM, the koff amounted to 0.00146 s⁻¹ and the kon is 7.03e+06 M⁻¹ s⁻¹. Further, in test [2], the “IC50, human PAD4 enzyme inhibitory activity (citrullination of BAEE, colorimetric)” value amounted to 21.6 nM.

B9: anti-PAD4 antibody 3-2-37 (antibody, human IgG1, lambda, V domains shown)
VH: B1 VH with Y60I, T62Y, P63N, Y64Q, T66S, N84S, A97G
VL: B1 VL with T90L
notes: Lib1(6R)-2-37 with the 84th asparagine of the heavy chain substituted with serine; full-length IgG from ExpiCHO
Regarding B9, in test [3], the “antigen-binding activity after storage at 40° C. for 4 weeks, relative to storage at 4° C.” value is 94.7%. The “IC50, human PAD4 enzyme inhibitory activity (citrullination of BAEE, colorimetric)” value in test [2] turned out to be 15.3 nM. In test [4], this molecule came in with a Kd of 0.073 nM, a koff of 0.000617 s⁻¹ and a kon of 8.51e+06 M⁻¹ s⁻¹.

B10: anti-PAD4 antibody 3-1-39 (antibody, human IgG1, lambda, V domains shown)
VH: B1 VH with Y60T, G61S, T62V, P63N, Y64A, N84S
VL: B1 VL
notes: Lib1(6R)-1-39 with the 84th asparagine of the heavy chain substituted with serine; full-length IgG from ExpiCHO
As for B10, in test [3], the “antigen-binding activity after storage at 40° C. for 4 weeks, relative to storage at 4° C.” value amounted to 93.9%. Further, the “IC50, human PAD4 enzyme inhibitory activity (citrullination of BAEE, colorimetric)” value in test [2] came out at 8.8 nM. In test [4], the Kd came out at 0.048 nM, the koff stood at 0.000626 s⁻¹ and the kon was determined as 1.3e+07 M⁻¹ s⁻¹.
